Source: patent publication US20230265175A1 (Merck Sharp & Dohme, published 2023)

Columns and labels:
[1] = target: T1, tau species in African Green Monkey (AGM) CSF (African Green Monkey); test: competitive ELISA, fresh AGM CSF (75 µl of neat CSF); competitor biotinylated Ta1505-mIgG2a
T1 construct: also called Fresh African Green Monkey (AGM) CSF
Procedure: Binding affinities of various anti-tau-pS413 antibodies described herein for endogenous tau species were determined in brain homogenates and CSF samples from AD patients and preclinical models. Briefly, samples were pre-incubated with different concentrations of various anti-tau-pS413 antibodies, or respective isotype controls. Following a one-hour pre-incubation period, the antigen-antibody (Ag-Ab) mixture was added to plates pre-coated with a total tau capture antibody (Innotest ELISA kit).
Tissue homogenates were prepared using 1% sarkosyl buffer with several high-speed centrifugation steps to enrich for insoluble proteins including tau.

[2] = target: recombinant phosphorylated tau protein monomer (35 AWM); test: competitive ELISA, 35 AWM (1 ng); free tau-pS413 detected with biotinylated Ta1505-mIgG2a (competitor)

| EC50 [1] | EC50 [2] | Binder |
| --- | --- | --- |
| 2.08 nM | 6.73 nM | HmzTa1505-hIgG4-S228P (antibody) heavy: not shown light: DIVMTQSPLSLPVTLGEPASISCRSSQNIVHSNANTYLEWYLQKPGQSPQLLIYTVSNRFSGVPDRFSGSGSGTDFTLKISRVEAEDLGVYYCFQGSHLPLTFGGGTKVEIKRTVAAPSVFIFPPSDEQLKSGTASVVCLLNNFYPREAKVQWKVDNALQSGNSQESVTEQDSKDSTYSLSSTLTLSKADYEKHKVYACEVTHQGLSSPVTKSFNRGEC |
| 0.008 nM | 0.055 nM | V8-AFM-hIgG1-LALA-YTE (antibody, also called V8-AFM-IgG1-LALA-YTE) heavy: EVQLVESGGGLVQPGGSLRLSCAASGFTFSSFALNWVRQAPGKGLEWVGHIRSETNNYVTFYAASVKGRFTVSRDDSQNTAYLQMNSLKTEDTATYYCVRRGPRDSWFGYWGQGTLVTVSSASTKGPSVFPLAPSSKSTSGGTAALGCLVKDYFPEPVTVSWNSGALTSGVHTFPAVLQSSGLYSLSSVVTVPSSSLGTQTYICNVNHKPSNTKVDKKVEPKSCDKTHTCPPCPAPEAAGGPSVFLFPPKPKDTLYITREPEVTCVVVDVSHEDPEVKFNWYVDGVEVHNAKTKPREEQYNSTYRVVSVLTVLHQDWLNGKEYKCKVSNKALPAPIEKTISKAKGQPREPQVYTLPPSRDELTKNQVSLTCLVKGFYPSDIAVEWESNGQPENNYKTTPPVLDSDGSFFLYSKLTVDKSRWQQGNVFSCSVMHEALHNHYTQKSLSLSPGK light: DIVMTQSPLSLPVTLGEPASISCRSSQKIVHRNANTYLEWYLQKPGQSPQLLIYTVSNRFSGVPDRFSGSGSGTDFTLKISRVEAEDLGVYYCFQGSYLPLTFGGGTKVEIKRTVAAPSVFIFPPSDEQLKSGTASVVCLLNNFYPREAKVQWKVDNALQSGNSQESVTEQDSKDSTYSLSSTLTLSKADYEKHKVYACEVTHQGLSSPVTKSFNRGEC |
